Source: IntAct's records for PubMed 18626018

B1: CREB-regulated transcription coactivator 2 (Mus musculus), Q3U182 (parent)
chain: MATSGANGPGSATASASNPRKFSEKIALQKQRQAEETAAFEEVMMDIGSTRLQAQKLRLAYTRSSHYGGSLPNVNQIGCGLAEFQSPLHSPLDSSRSTRHHGLVERVQRDARRMVSPLRRYPRHIDSSPYSPAYLSPPPESGWRRMMPWGNLPAEKGQLFRLPSALNRTSSDSALHTSVMNPNPQDTYPGPTPPSVLPSRRGGGFLDGEMDAKVPAIEENVVDDKHLLKPWDAKKLSSSSSRPRSCEVPGINIFPSPDQPANVPVLPPAMNTGGSLPDLTNLHFPPPLPTPLDPEETVYPSLSGGNSTTNLTHTMTHLGISGGLGLGPSYDVPGLHSPLSHPSLQSSLSNPNLQASLSSPQPQLQGSHSHPSLPASSLAHHALPTTSLGHPSLSAPALSSSSSSSSTSSPVLSAPPYPASTPGASPRHRRVPLSPLSLPAGPADARRSQQQLPKQFSPTMSPTLSSITQGVPLDTSKLPTDQRLPPYPYSPPSLVIPTHPPTPKSLQQLPSQACLVQPSGGQPPGRQPHYGALYPPGSSGHGQQPYHRPINDFSLGNLEQFNMESPSTSLVLDPPAFSEGPGFLGSEGSMSGPQDPHVLNHQNLTHCSRHGSGPNIILTGDSSPGFSKEIAAALAGVPGFEVSASGLELGLGLEDELRMEPLGLEGLTMLSDPCALLPDPAVEDSFRSDRLQ

How the values were obtained:
[1] = variants of: B1; conditions: with 1433b_human YWHAB
[2] = variants of: B1; conditions: with mark2_human MARK2, Q7KZI7
[3] = variants of: B1; conditions: with aapk1_human PRKAA1, Q13131
[4] = variants of: B1; conditions: with mark3_human MARK3, P27448
Chain of mark3_human MARK3, P27448 (P27448 whole entry, looked up): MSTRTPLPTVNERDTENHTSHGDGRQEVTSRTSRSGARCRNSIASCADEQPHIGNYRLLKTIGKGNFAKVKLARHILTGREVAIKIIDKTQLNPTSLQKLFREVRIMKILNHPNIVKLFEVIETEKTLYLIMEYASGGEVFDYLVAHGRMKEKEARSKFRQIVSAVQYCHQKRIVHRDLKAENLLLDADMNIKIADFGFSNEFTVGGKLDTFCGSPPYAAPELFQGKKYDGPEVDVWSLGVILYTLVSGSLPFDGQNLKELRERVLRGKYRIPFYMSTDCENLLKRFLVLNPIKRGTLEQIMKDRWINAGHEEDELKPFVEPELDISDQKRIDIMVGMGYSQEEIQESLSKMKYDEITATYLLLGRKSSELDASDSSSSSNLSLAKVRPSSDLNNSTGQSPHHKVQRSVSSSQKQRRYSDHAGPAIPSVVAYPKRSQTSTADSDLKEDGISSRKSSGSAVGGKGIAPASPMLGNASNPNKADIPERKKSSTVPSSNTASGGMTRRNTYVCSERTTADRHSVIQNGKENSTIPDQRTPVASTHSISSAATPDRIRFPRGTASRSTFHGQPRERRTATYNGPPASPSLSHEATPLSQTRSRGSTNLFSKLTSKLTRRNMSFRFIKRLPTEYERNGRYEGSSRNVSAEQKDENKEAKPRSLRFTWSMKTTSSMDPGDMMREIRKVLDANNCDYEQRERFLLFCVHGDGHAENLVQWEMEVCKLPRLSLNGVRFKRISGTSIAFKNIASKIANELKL

Chain of aapk1_human PRKAA1, Q13131 (Q13131 whole entry, looked up): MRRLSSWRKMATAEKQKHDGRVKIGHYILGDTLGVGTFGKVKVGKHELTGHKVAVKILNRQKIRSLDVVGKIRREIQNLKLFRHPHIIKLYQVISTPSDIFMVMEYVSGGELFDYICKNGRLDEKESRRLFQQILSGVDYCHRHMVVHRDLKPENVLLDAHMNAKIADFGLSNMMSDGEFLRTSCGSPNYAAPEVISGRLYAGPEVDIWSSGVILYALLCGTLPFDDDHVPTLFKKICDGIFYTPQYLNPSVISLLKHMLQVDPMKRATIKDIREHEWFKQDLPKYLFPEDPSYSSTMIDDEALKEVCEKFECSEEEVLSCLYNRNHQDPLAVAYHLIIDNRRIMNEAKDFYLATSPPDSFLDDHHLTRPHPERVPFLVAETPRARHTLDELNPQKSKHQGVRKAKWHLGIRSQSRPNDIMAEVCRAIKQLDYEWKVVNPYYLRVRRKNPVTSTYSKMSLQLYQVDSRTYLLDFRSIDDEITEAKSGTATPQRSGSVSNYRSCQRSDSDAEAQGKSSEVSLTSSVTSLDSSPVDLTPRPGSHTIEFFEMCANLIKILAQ
Chain of mark2_human MARK2, Q7KZI7 (Q7KZI7 whole entry): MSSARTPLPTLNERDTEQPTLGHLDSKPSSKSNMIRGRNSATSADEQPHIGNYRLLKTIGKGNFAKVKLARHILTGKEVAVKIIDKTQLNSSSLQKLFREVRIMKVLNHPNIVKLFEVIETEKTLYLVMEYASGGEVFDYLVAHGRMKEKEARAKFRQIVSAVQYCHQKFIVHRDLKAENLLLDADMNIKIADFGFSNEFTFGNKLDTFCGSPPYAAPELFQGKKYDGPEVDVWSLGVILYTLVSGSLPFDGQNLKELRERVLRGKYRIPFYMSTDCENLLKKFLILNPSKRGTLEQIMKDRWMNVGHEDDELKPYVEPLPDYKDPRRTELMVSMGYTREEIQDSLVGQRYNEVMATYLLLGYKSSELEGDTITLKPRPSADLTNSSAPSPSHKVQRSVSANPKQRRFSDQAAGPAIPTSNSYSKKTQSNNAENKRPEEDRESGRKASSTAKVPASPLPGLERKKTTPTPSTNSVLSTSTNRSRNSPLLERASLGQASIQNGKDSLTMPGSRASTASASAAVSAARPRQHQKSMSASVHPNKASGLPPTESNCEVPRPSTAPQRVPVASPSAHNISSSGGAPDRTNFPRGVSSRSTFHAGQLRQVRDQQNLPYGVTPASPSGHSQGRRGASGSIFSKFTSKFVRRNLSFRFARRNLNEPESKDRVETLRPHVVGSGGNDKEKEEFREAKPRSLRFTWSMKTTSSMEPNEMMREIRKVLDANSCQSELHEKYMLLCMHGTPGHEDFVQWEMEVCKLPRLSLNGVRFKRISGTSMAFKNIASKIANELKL

Row | effect of a mutation on the interaction [1] | effect of a mutation on the interaction [2] | effect of a mutation on the interaction [3] | effect of a mutation on the interaction [4] | Variant
1 | disrupting interaction | – | – | – | S171A;S275A
2 | disrupting interaction | disrupting interaction | disrupting interaction | disrupting interaction | S171A
3 | – | disrupting interaction | disrupting interaction | disrupting interaction | S275A
